In publication PMC9838529, “The neoepitope of the complement C5b-9 Membrane Attack Complex is formed by proximity of adjacent ancillary regions of C9” (Communications Biology, 2023) one finds binding result and koff data, which are given here for three molecules.

Data set [1] concerns the molecule itself. The data set can be described thus: SEC; analytical size exclusion (Superdex 200 Increase 5/150 GL) of C9 after the polyC9 reaction (10 mM HEPES pH 7.2, 50 mM NaCl, overnight at 37 °C); oligomer in the void volume (~1.2 mL), monomer at ~2.1 mL.
Data set [2] addresses T1, polyC9 (in vitro homo-oligomerised human C9, wild type) (human).
T1 construct: complement component C9, human, wild type, cloned in pSecTag2A; Tag-less purification; also called oligomeric C9; wild type oligomeric C9; source: Expi293F, purified (DEAE, CHT, SEC); oligomerised by incubating 1 mg/mL C9 overnight at 37 °C; copies: 22
The data set can be described thus: SPR; aE11 IgG amine-coupled to a CM5 chip (~700 RU), polyC9 as analyte; Biacore T200, 25 °C; 10 mM HEPES-NaOH pH 7.2, 150 mM NaCl, 1 mM EDTA, 0.005% P20; multi-cycle kinetics; maximum response as relative measure; one-to-one model disregarding multivalency. Particulars: both partners purified.

Data set [3] concerns the target T2, whole MAC (C5b6, C7, C8αβγ, human C9) formed on liposomes (Homo sapiens).
T2 construct: C5b of C5b6: beta chain of complement C5; C5b of C5b6: alpha' chain of complement C5 (alpha chain without C5a); complement component C6 of C5b6; complement component C7; complement component C8 alpha chain; complement component C8 beta chain; complement component C8 gamma chain; complement component C9, human, wild type, as in m8; oligomeric in the MAC; also called C5b-9; oligomeric human C9 …
As to the kind of experiment: far-Western, overlay or dot blot; slot immunoblot of MAC formed on liposomes from C5b6 (1 to 16.8 nM), C7 30 nM, C8 30 nM, C9 7 nM; probed with aE11. To be noted: both partners purified.

T1 sequence (chain, as listed by the source): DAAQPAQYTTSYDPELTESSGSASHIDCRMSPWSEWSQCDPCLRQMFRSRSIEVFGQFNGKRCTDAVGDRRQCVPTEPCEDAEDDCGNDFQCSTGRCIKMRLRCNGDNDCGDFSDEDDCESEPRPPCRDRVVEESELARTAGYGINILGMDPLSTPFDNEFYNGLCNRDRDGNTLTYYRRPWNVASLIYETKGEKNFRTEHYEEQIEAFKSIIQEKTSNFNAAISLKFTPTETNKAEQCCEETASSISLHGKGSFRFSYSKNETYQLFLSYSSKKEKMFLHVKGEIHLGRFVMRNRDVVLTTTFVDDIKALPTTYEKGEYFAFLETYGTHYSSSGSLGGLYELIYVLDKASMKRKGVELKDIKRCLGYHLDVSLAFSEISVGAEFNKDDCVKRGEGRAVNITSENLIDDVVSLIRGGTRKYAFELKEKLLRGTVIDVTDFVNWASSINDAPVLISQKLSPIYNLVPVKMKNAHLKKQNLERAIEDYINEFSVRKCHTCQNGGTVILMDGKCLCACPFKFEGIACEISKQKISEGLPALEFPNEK
T2 sequence (P02748 22-559): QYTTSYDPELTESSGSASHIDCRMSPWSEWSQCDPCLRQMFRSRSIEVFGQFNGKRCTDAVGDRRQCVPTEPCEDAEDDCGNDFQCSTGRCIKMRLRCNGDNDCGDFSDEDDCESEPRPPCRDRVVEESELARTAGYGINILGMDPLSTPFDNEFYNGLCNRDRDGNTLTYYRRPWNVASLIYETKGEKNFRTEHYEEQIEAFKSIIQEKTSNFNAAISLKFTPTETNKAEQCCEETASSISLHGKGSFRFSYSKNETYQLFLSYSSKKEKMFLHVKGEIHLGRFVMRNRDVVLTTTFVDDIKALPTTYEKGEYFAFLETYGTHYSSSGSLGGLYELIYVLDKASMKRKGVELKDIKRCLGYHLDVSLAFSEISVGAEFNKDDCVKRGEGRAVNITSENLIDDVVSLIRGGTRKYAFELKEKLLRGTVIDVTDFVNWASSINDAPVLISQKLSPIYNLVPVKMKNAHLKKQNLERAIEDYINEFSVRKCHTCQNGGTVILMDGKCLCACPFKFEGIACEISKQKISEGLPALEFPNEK

B1: human complement C9 V68E (natural protein)
chain: not shown
notes: complement component C9, human, human-to-murine point mutant; source: Expi293F, purified tag-less (anion exchange, CHT, SEC)
Turning to B1, the binding result in data set [1] is on record as “binds”.

B2: aE11 IgG (antibody, V domains shown)
VH: QVQLKESGPGLVAPSQSLSITCTVSGFSLTVYGVNWIRQPPGKGLEWLGMIWGDGSTDYNSALKSRLSITKDNSKSQVFLKMNSLQTDDTARYYCARDRSYGGSSAWFGYWGQGTLVTVSA
VL: DIQMTQTTSSLSASLGDRVTISCRASHDISNYLNWYQQKPDGTLKLLIYYTSRLHSGVPSRFSGSGSGTDYSLTISNLEQEDVATYFCQQGNYLPYTFGGGTKLEIK
notes: heavy chain of mouse monoclonal aE11; variable region as the heavy chain of m1 in PDB 8DE6; light chain (kappa) of mouse monoclonal aE11; variable region as the light chain of m1 in PDB 8DE6; also called monoclonal aE11; full aE11 IgG; source: purified from hybridoma supernatant by protein G chromatography
Broadly, the koff is a measure of how fast the partners let go of each other. Read a high koff as fast dissociation. In turn, B2 showed a koff in data set [2] of about 1e-06 s⁻¹. In data set [3], the binding result is “binds”.

B3: human complement C9 R65Q/V68E/P72E (natural protein)
chain: not shown
notes: complement component C9, human, human-to-murine triple mutant; also called triple mutant; source: Expi293F, purified tag-less (anion exchange, CHT, SEC)
On to B3, for which the binding result in data set [1] is “binds”.
